Laboratory results taken from patent publication US20090305963A1, “Lipocalin 2 for the Treatment, Prevention, and Management of Cancer Metastasis, Angiogenesis, and Fibrosis” (priority 2005, published 2009).

Legend:
[1] = test system: E-cadherin; test: E-cadherin phosphorylation (immunoprecipitation and western blot); assay type: cell-based, mouse; conditions: R cells vs RL cells or R cells with inhibitor
Excerpt: (§1) Cells were stained as described previously (Mammoto et al., Cancer Lett. 184:165-170, 2002) and images acquired with a Delta Vision system (Applied Precision, Issaquah, Wash.) equipped with an Axiovert 100 microscope (Carl Zeiss MicroImaging Inc., Shelton, Conn.) and a Photometrics 300 series scientific-grade cooled CCD camera, reading 12-bit images, and using the 63/1.4 NA plan-Neofluar objective. For immunoprecipitation and immunoblotting, tissues were weighed, diced, soaked in ice cold RIPA buffer with 1 mM phenylmethylsulfonyl fluoride (PMSF), 1 μg/ml Aprotinin, 1 mM Na3VO4, 1 nM NaF, homogenized on ice, centrifuged at 10,000 g for 10 minutes at 4° C., and the supernatant fluid collected as total cell lysate. Cultured cells were washed, scraped, and solubilized in a lysis buffer containing 20 mM Tris-HCl pH 7.5, 150 mM NaCl, 0.5% Triton X-100, 1% aprotinin, and 1 mM PMSF. After 20 minutes on ice, the cells were pelleted by centrifugation and the supernatants were used as a cell lysate. Cell lysates or immunoprecipitated cell lysates were separated by PAGE (NuPAGE® gels; Invitrogen, Carlsbad, Calif.), followed by electroblotting onto a polyvinylidenedifluoride membrane (PVDF). Protein bands were detected using SuperSignal® West Pico Chemiluminescent Substrate (Pierce Chemical Co., Rockford, Ill.) (Hanai et al., J. Cell. Biol. 158:529-539, 2002).

[2] = test system: E-cadherin mRNA; test: E-cadherin mRNA by semi-quantitative RT-PCR; assay type: cell-based, mouse; conditions: EV, R and RL cells in vitro
Procedure: Total RNA was isolated from 4T1 cells in vitro using the SV Total RNA Isolation system (Promega, Madison, Wis.). Tissue RNA was collected with TRIzol® (GibcoBRL, Gaithersburg, Md.). RT-PCR was performed on the Perkin Elmer GeneAmp PCR system 2400 using Omniscript (Qiagen, Valencia, Calif.) for reverse transcription reaction, and Taq DNA polymerase (Qiagen) and primers for mouse E-cadherin (5′-[…]-3′ and 5′-[…]-3′, SEQ ID NO: 5), GAPDH (5′-ACAGTCTTCTGAGTGGCA-3′, SEQ ID NO: 6, and 5′-CCCATCACCATCTTCCAG-3′, SEQ ID NO: 7) and HA-tagged lipocalin 2 (5′-GGAGTACTTCAAGATCAC-3′, SEQ ID NO: 8 and 5′-[…]-3′, SEQ ID NO: 9) for DNA amplification. The PCR conditions were established for DNA amplification in the linear range. RT-PCR products were analyzed on 1% agarose gels.

[3] = test system: colon cancer cells; conditions: ectopic expression of lipocalin 2; cited from earlier work
[4] = test system: VEGF; test: Measurement of VEGF levels by ELISA in conditioned media of 4T1 cells; assay type: cell-based, mouse; conditions: RL vs R cells; conditioned media, 2 days
Procedure: Conditioned media of 4T1 cells were collected after 2 days of incubation. Murine VEGF levels were determined in duplicate using a commercially available sandwich ELISA kit (R&D Systems, Minneapolis, Minn.), with a affinity purified polyclonal antibody specific for mouse VEGF has been pre-coated onto a microplate. Results were compared with a standard curve of mouse VEGF with a lower detection limit of 7 pg/mL. A model 680 microplate-reader (Bio-Rad Laboratories, CA) was used to measure light intensity correlating with VEGF binding.

[5] = test system: E-cadherin; test: EMT phenotype, E-cadherin and vimentin protein in 4T1 clones (microscopy, western blot); assay type: cell-based, mouse; conditions: RL cells compared to R cells
Excerpt: as §1
To assess the effects of lipocalin 2 on ras-mediated transformation, we chose a syngeneic spontaneously metastasizing murine breast cancer model (4T1 cell line) and accelerated its metastatic potential by introduction of constitutively active mouse H-ras mutant A12 using retrovirus. […] We generated stable clones of 4T1-ras cells expressing lipocalin 2 (RL) by transfection of a lipocalin 2 expression plasmid (lipocalin 2-pcDNA3.1). […] (FIG. 2A, lower panel, and FIG. 2B). […] Expression of E-cadherin in RL cells was dependent on the dose of lipocalin 2-pcDNA3.1 expression vector (transiently introduced in a population of R cells), on a conditioned medium containing lipocalin 2 (FIGS. 2D-E), as well as on recombinant lipocalin 2 protein. R cells shown in FIG. 2D were seeded in a 6-well plate and transfected with lipocalin 2 by FuGene 6 at 40% confluency. After 48 hours, cells were trypsinized, respread on 6-well plate, and transfected again in the same conditions. After 72 hours, cells were harvested and analyzed by western blotting. EV cells in FIG. 2E were seeded in a 6-well plate with 1 ml/well containing 10% FCS with DMEM and 2 ml of CM was added at 10% confluency. After 72 hours, cells were harvested and analyzed by western blotting. CM is a mixture of media from 293T cells transfected with lipocalin 2 and from 293 cells transfected with empty vector (pcDNA3.1).

[6] = test system: AKT; test: Western blot for phospho-AKT; assay type: cell-based, mouse
Excerpt: FIGS. 14A-14B are western blots for phospho-AKT (pAKT) showing the downregulation of ras-induced AKT phosphorylation, but not IGF-1 induced AKT phosphorylation, by lipocalin 2. FIG. 14A is a western blot for pAKT showing the lysate from each 4T1 clone (EV, R and RL). FIG. 14B is a western blot for pAKT showing the lysate from EV or RL cells treated with or without IGF-1. GAPDH serves as a loading control.
as §1, with “Cultured cells were washed, scraped, and solubilized in a lysis buffer containing 20 mM Tris-HCl pH 7.5, 150 mM NaCl, 0.5% Triton X-100, 1% aprotinin, and 1 mM PMSF. After 20 minutes on ice, the cells were pelleted by centrifugation and the supernatants were used as a cell lysate. Cell lysates or immunoprecipitated cell lysates were separated by PAGE (NuPAGE® gels; Invitrogen, Carlsbad, Calif.), followed by electroblotting onto a polyvinylidenedifluoride membrane (PVDF).” left out

[7] = test system: 4T1-ras (R) cells; test: In vitro invasion assay (Matrigel-coated Transwells); assay type: cell-based, mouse; conditions: stable lipocalin 2 expression (RL) vs R cells; 16 hours
Procedure: FIG. 3 is a graph depicting the invasion migration of stable 4T1 clones using EV, R, and RL cells. Polycarbonate membranes of Transwells were coated with Matrigel® and cells were seeded. Sixteen hours later, cells were fixed, stained with Giemsa solution, and counted for each of the stable clones; EV, R, and RL.
Polycarbonate membranes (6.5 mm diameter, 8 μm pore size) of Transwells (Coster, N.Y.) were coated with Matrigel® (BD Biosciences, Franklin Lakes, N.J.) and cells were seeded (10^6 cells/100 μl) with DMEM including 0.1% serum. 16 hours later, cells were fixed, stained with Giemsa solution, and the upper surface of each membrane was scraped with a cotton swab. Cells that had reached the lower surface of the membrane (migrated cells) were counted in 20 random fields using a light microscope (×400).

B1: lipocalin 2: human lipocalin 2 cDNA (HA tagged) in pcDNA3.1, stably expressed in 4T1-ras cells (RL clone); iron-siderophore binding protein (protein, UniProt P80188 21-198, looked up)
Neutrophil …: QDSTSDLIPAPPLSKVPLQQNFQDNQFQGKWYVVGLAGNAILREDKDPQKMYATIYELKEDKSYNVTSVLFRKKKCDYWIRTFVPGCQPGEFTLGNIKSYPGLTSYLVRVVSTNYNQHAMVFFKKVSQNREYFKITLYGRTKELTSELKENFIRFSKSLGLPENHIVFPVPIDQCIDG
modifications: HA tag
**Q.** Which results are given for B1?
**A.** E-cadherin phosphorylation [1]: markedly downregulated; E-cadherin mRNA [2]: remained unchanged; liver metastasis [3]: inhibited liver metastasis; suppression of ras-induced VEGF secretion [4]: ≈ 7.5 fold; E-cadherin expression [5]: re-expressed E-cadherin; cell morphology [5]: reverted to an epithelial morphology; vimentin expression [5]: suppressed the expression of mesenchymal vimentin; IGF-1-induced phosphorylation of AKT ([6]; EV or RL cells with or without IGF-1): does not downregulate; ras-induced phosphorylation of AKT ([6]; EV, R and RL clones): downregulates; reversal of ras induced invasiveness in vitro [7]: approximately 76%
